The values that follow come from US20040116355A1 (CYTOVIA, published 2004).

* marks the point of attachment. Ethoxycarbonyl = CCOC(=O)*; CH2F = FC*

The test deals with T1, rCaspase 3 (purchased from PharMingen) (UniProt P42574 29-277, limits assumed).
T1 sequence (looked up): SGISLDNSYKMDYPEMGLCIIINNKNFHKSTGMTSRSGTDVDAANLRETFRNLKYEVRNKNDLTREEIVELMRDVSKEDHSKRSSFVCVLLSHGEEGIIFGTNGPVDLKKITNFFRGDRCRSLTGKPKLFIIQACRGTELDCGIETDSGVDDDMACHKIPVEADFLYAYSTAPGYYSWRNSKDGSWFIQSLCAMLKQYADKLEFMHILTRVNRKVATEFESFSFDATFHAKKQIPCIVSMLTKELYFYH
Nature of the test: cell-based or functional assay.

As for Ethoxycarbonyl-Val-Asp-CH2F (SMILES CCOC(=O)N[C@H](C(=O)N[C@@H](CC(=O)O)C(=O)CF)C(C)C) [Ethoxycarbonyl-Val-Asp-fmk], the “Caspase-3 IC50 (fluorometric enzyme assay, cleavage of 10 uM Ac-DEVD-AMC by 2 ng rCaspase 3)” value amounted to 58 nM. As to cyclohexylmethoxycarbonyl-Val-Asp-CH2F [Cyclohexylmethoxycarbonyl-Val-Asp-fmk], the “Caspase-3 IC50 (fluorometric enzyme assay, cleavage of 10 uM Ac-DEVD-AMC by 2 ng rCaspase 3)” value was found to be 72 nM.
